From the RNAGym collection of RNA variant scans (doi:10.1021/acssynbio.7b00057)

B1: Pistol ribozyme (parent)
chain: GGGUCGUUGUUCCAUAAUCGCGUGGAUAUGGCACGCAAGUUUCUACCGGGCACCGUAAAUGUCCGACUGGAGCCGUUCGGGCGGCUAUAAACAGACCUCAGGCCCGAAGCGUGGCGGCACCUGCCGCCGGUGGUAAAAAAGAUCGGAAGAGCACACGUCU

Variants of: B1
Test: aptazyme ON/OFF ratio, guanine; higher = stronger switching; co-transcriptional cleavage with and without guanine

Variant | aptazyme ON/OFF ratio
G9U U10G C12A | 1.47
U7A U8A G9U U10G U11A C12G C13A | 1.18
U8G G9C U10C U11A C12A | 1.05
U7A U8C G9C U10A U11G C12G C13A | 1.08
U8A U11G C12A C13U | 1.2
U7A U10G C12U C13U | 1.36
U8C G9U U10A U11A C12U C13A | 1.14
U8G G9U U10G U11A C13G | 1.04
U7A G9C U10C C12G | 1.07
G9A U11C C12A C13G | 1.35
U7A U8A U10A U11A C12A C13U | 1.25
U7A U8A G9A U10C U11G C13U | 1.09
U7C U8A G9A U10G U11A C12U C13G | 1.12
U7C G9U U10G U11A C12A C13U | 1.44
U8G G9A U10C C13U | 1.07
U7C G9A U10C C12A C13G | 1.17
U7C G9A U10C C12A C13A | 1.38
U7A G9U U10A U11C C13A | 1.09
U8C U10C U11A C12G | 1.35
U7G G9U U10G U11G C12A C13A | 1.11
U7C G9C C12G | 1.04

Variant | aptazyme ON/OFF ratio
U7C U8A U10C U11C C12G C13G | 1.12
U7C U8C G9A U10C U11C C13A | 1.08
U10C U11A C12G C13G | 1.25
U7C U8G G9U U10C U11A C12G C13G | 1.21
U10G C12A C13A | 1.25
U7A U8A G9C U10G U11A C12G C13G | 1.21
U7G U8A G9A C12U C13G | 1.1
U7A G9U U10G U11C C13U | 1.05
U7A U8C U11G C12U C13A | 1.08
U7C U8G G9U U10C U11C C12U C13A | 1.05
U7C U8A G9U U10C U11G C12U C13U | 1.15
U7C U8G G9A U10A C12A C13G | 1.1
U7G U8G G9C U10C U11C | 1.22
U7A U10C U11A C12G C13A | 1.22
G9A U10A U11C C12G C13G | 1.27
U7C U8G C12A | 1.63
U7C U8A U11A C12G C13U | 1.12
U7G U8G U10A | 2.24
U8G G9U U11G | 1.36
U8G G9A U10A U11C C12U C13A | 1.18
U7A G9A U10G C12A C13G | 1.15

Variant | aptazyme ON/OFF ratio
U7A U8C G9A U10C U11C C12A | 1.18
U7A U8A G9A U10A | 1.46
U7G U8A G9C U11G C12G C13A | 1.01
U7G U8G U10A U11A C13A | 1.33
U8C G9U U10A | 1.42
U7C U8A U10C U11A C12U C13G | 1.17
U7G G9C U11C C12A C13A | 1.42
G9U U11G C12U | 1.99
U8A G9C C12G C13A | 1.2
U7A U8G G9A U10A C13A | 1.41
U7A U8A U10C U11A C12U C13A | 1.16
U7A U8C G9U U10G C12U C13A | 1.61
U7C U8G G9A U10G U11G C12U | 1.36
U7A U8G G9U U11G C12G | 1.56
U8A U10C U11A C12U C13U | 1.31
U7G G9C U10A U11C C12A C13G | 1.23
U8C G9U U10C C12A C13A | 1.1
U8C G9U U10C C12A C13G | 1.11
U7G U10C U11C | 1.07
U7A U10C U11G C12U | 1.24
U8A G9U U10C C12U C13G | 1.07

Variant | aptazyme ON/OFF ratio
U7A U8A G9U C12G C13U | 1.47
U7A U8C G9C U10A U11A C13G | 1.06
U7G U8A U10A U11C C12U | 1.05
U7C U8A G9A U10A C12G C13U | 1.27
U7G U8C G9C U11A C13U | 1.18
U7A U8C G9C U10C U11C C13U | 0.981
U8A U10A U11A C12U C13A | 1.2
U7C U8C G9A C12U | 1.72
U7A G9U U10A C13G | 1.05
U7C G9A U10A U11C C13A | 1.03
U8C U10C C12U C13A | 1.21
U7C U8C G9A U10A U11C C12U C13U | 1.13
U7C U8G G9U C12G C13G | 1.25
U7A U8C G9C U10G C12U C13G | 1.11
U8C G9C C12A C13A | 1.08
U8G G9U U10G U11G C12A C13A | 1.07
U7G U8G G9A U10G U11A C12A C13G | 1.04
U8C G9C U10G U11A C12G C13G | 1.13
U7C U8G G9C U10A U11G C12G | 1.26
U8A G9C U10C U11G | 0.775
U7G U8C U10G C12A C13G | 1.12
